Here are results for four molecules from patent US20100047253A1 (Amgen, published 2010).

Several values for one entry are separate records, joined by “and”; a condition that tells them apart may be missing. Identical values can stand only once.

In test [1] the target is T1, mouse IL-13 (mouse, UniProt P20109 22-131, limits assumed).
T1 construct: also called murine IL-13
T1 sequence (looked up): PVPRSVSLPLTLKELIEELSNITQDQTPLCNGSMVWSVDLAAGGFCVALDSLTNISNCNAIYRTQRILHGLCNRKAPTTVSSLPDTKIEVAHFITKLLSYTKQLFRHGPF
Description: epitope mapping with mouse IL-13 chimeric molecules (ELISA). A general note: ELISA stands for enzyme-linked immunosorbent assay.

Test [2] has as its target T2, human IL-13 (source not stated for the assay) (human, UniProt P35225 35-146, limits assumed). Description: cell-based or functional assay.
Test [3] has as its target T3, 693 phage.
T3 peptide: YKIGEPHKDTYM
As to the kind of experiment: Panning of mAb 693 against a 12-mer random peptide library expressed on phage, two rounds.

Test [4] addresses T4, Human IL-13-Mouse IL-13 Helix C (human IL-13 with mouse Helix C, UniProt P35225 35-146, limits assumed).
T4 construct: Expressed and secreted chimeric protein; also called Mo HelixC
T4 chain: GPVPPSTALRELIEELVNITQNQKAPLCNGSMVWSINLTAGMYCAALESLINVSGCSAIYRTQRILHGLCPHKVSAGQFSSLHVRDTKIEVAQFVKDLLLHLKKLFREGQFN
As to the kind of experiment: ELISA on secreted IL-13 chimeric proteins.

The target of test [5] is T5, Human IL-13-Mouse IL-13 Helix D (human IL-13 with mouse Helix D).
T5 construct: Expressed and secreted chimeric protein; also called Mo HelixD
T5 chain: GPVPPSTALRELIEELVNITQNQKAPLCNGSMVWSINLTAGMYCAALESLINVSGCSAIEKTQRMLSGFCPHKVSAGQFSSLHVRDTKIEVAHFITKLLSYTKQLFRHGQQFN
As to the kind of experiment: ELISA on secreted IL-13 chimeric proteins.

The target of test [6] is T6, Human IL-13-Mouse IL-13 Helix B (human IL-13 with mouse Helix B, UniProt P35225 35-146, limits assumed).
T6 construct: Expressed and secreted chimeric protein; also called Mo HelixB
T6 chain: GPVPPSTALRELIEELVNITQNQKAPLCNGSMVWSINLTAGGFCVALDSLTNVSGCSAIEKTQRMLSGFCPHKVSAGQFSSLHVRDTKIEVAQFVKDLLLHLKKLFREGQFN
As to the kind of experiment: ELISA on secreted IL-13 chimeric proteins.

For test [7], the target named is T7, Recombinant Human IL-13 (R & D 213-IL-005) (human, UniProt P35225 35-146).
T7 construct: also called IL-13 antigen (R&D Systems)
As to the kind of experiment: SPR (Biacore 2000), mAb captured on goat anti-human surface, IL-13 (R&D) injected, 1:1 model. (In SPR one partner is held on a chip, and binding of the other changes the refractive index at the surface.)

The target of test [8] is T2, human IL-13 (source not stated for the …). Description: cell-based or functional assay. The source holds these as a separate data set.
The target in test [9] is T8, native human IL-13 (human, UniProt P35225 35-146, limits assumed).
T8 construct: also called hIL-13
Description: KinExA kinetic, direct method; koff calculated from kon and KD.

For test [10], the target named is T9, Human IL-13-rabbit Fc fusion protein (human IL-13 fused to rabbit Fc).
T9 construct: also called IL-13-RbFc; IL-13 Rb Fc
T9 sequence (chain, as listed by the source limits assumed): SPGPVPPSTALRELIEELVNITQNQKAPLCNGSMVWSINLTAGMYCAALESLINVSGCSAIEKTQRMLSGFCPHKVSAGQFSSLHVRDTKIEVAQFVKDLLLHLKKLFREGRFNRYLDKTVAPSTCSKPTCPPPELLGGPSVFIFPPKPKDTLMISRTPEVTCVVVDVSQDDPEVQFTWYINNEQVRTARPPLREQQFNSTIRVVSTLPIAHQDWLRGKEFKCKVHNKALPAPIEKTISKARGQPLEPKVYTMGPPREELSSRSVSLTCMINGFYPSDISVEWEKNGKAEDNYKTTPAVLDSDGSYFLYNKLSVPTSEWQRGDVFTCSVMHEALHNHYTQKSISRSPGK
Description: ELISA on plates coated with IL-13RbFc, detection with rabbit anti Hu IgG Fc HRP (paragraph 267 to paragraph 269).

Test [11] addresses marmoset IL-13 (marmoset, UniProt A0A8I3WT33 35-145). Description: KinExA, n-curve analysis. On the technique in general: In KinExA the mixture passes briefly over coated beads that capture the unbound partner.
Test [12] addresses T8, native human IL-13. As to the kind of experiment: KinExA; KD from the equilibrium experiments, printed in the kinetic table (direct method row); KinExA kinetic, direct method row; KD taken from the equilibrium experiments.
The target in test [13] is T7, Recombinant Human IL-13 (R & D …). Description: SPR (Biacore 2000) high resolution, mAb captured on goat anti-human Fc pAb, IL-13 (R&D Systems) 12.6-0.394 nM, 23 C, global 1:1 fit.
For test [14], the target named is T8, native human IL-13. Description: KinExA kinetic, injection method.
Test [15] concerns the target T2, human IL-13 (source not stated for the …). Description: cell-based or functional assay. This is another data set of the same source.
In test [16] the target is T10, native macaque IL-13 (macaque monkey).
T10 construct: also called macaque monkey IL-13
T10 sequence (Q864V6 19-132): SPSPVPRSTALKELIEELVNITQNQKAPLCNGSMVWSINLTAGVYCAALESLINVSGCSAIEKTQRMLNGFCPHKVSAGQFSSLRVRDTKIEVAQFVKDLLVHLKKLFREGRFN
As to the kind of experiment: KinExA, equilibrium in solution.

Test [17] deals with T8, native human IL-13. As to the kind of experiment: KinExA kinetic, direct method.
Test [18] concerns the target T8, native human IL-13. As to the kind of experiment: KinExA, equilibrium in solution.
Test [19] has as its target T8, native human IL-13. Description: KinExA kinetic, injection method; koff calculated from kon and KD.
Test [20] concerns the target T8, native human IL-13. As to the kind of experiment: KinExA; KD from the equilibrium experiments, printed in the kinetic table (injection method row).
For test [21], the target named is T6, Human IL-13-Mouse IL-13 Helix B. Description: ELISA on secreted IL-13 chimeric proteins; '*' denotes that the binding was weak in the sandwich ELISA.

In general, Kd refers to a measure of binding affinity in units of concentration. As a reminder, the koff is a measure of how fast the partners let go of each other. As usually defined, the kon is a measure of how fast the partners come together.

marmoset IL-13, sequence (A0A8I3WT33 entry or part of it): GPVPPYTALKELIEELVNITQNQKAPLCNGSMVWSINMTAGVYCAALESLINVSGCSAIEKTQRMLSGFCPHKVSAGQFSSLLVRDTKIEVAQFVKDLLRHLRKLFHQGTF

B1: mAb 693 (antibody, V domains shown)
VH: QVQLQESGPGLVKPSETLSLTCSVSGGSISSYYWSWIRQPAGKGLEWIGRIYMTGRTNYNSSLKSRVTMSIDTSKNQLSLKLSFMTAADTAVYYCARESGSSYSYDYWGQGTLVTVSS
VL: SYVLTQPPSVSVAPGQTARITCGGNNIGSKGVHWYQQKPGQAPVLVVYDDSDRPSGIPERFSGSNSGNTATLTISRVEAGDEADYYCQVWVSSSDHHVVFGGGTKLTVV
notes: also called sc693
B1: in test [1], the binding result is recorded as “no binding”. Moreover, in test [2], the “IC50, IL-13 induced eotaxin release, Average” value (“IC50 … Average” below) amounted to 0.054 nM; the “IC50, IL-13 induced eotaxin release, n = 1” value (shortened to “IC50 … n = 1”) worked out at 0.038 nM; the “IC50, IL-13 induced eotaxin release, n = 2” value (shortened to “IC50 … n = 2”) is 0.069 nM; the “IC50, IL-13 induced eotaxin release, n = 3” value (shortened to “IC50 … n = 3”) amounted to 0.053 nM. Also, the binding result in test [3] was “binds”. Besides, in test [4], the binding result is on record as “binds”. In [5], the binding result is “no binding”. The binding result in test [6] was “binds”. In test [7], the Kd is 0.189 nM and 0.109 nM; the koff was 0.00038 s⁻¹ and 0.00027 s⁻¹; the kon is 2e+06 M⁻¹ s⁻¹ and 2.5e+06 M⁻¹ s⁻¹.

B2: mAb 623 (antibody, V domains shown)
VH: EVQLVESGGGLVKPGGSLRLSCAASGFTFSNAWMSWVRQAPGKGLEWVGRIRSEIDGGTTNYAAPVKGRFTISRDDSKNTLYLQMNSLKTEDTAVYYCATDQVGAYYGDYYGMDVWGQGTTVTVSS
VL: SYELTQPPSVSVSPGQTARITCSGDALPEKYAYWYQQKSGQAPVLVIYEDSKRPSGIPERFSGSSSGTMATLTISGAQVEDEADYYCHSTDSSGNHGVFGGGTKLTVLG
notes: also called sc623
Regarding B2, the “IC50, eotaxin production by HDFa cells, 300 pM IL-13” value in test [8] came to 56 pM. Besides, the “IC50, eotaxin production by HDFa cells, 600 pM IL-13” value in test [8] is 113 pM. Also, the dissociation rate constant (koff) in test [9] is 0.00027 s⁻¹; in test [19] it was 0.00036 s⁻¹; in [7] it was 0.00025 s⁻¹. Further, the binding result in test [10] is “binds”; in [1], “no binding”; in test [4], “binds”; in [6] it was “binds”. Also, the Kd in test [11] turned out to be 0.403 nM; in [12] it was 0.024 nM; in test [13] it was 0.034 nM; in test [16], 0.037 nM; in test [18], 0.024 nM; in test [20], 0.024 nM. Besides, in test [7], the Kd was 0.052 nM. The kon came out at 7.3e+06 M⁻¹ s⁻¹ in test [13], 1.5e+07 M⁻¹ s⁻¹ in test [14], 1.1e+07 M⁻¹ s⁻¹ in test [17] and 4.9e+06 M⁻¹ s⁻¹ in test [7]. For the same molecule, the “IC50 … Average” value in [2] was 0.036 nM. The “IC50 … n = 1” value in test [2] was 0.031 nM. Further, in test [2], the “IC50 … n = 2” value amounted to 0.04 nM. Moreover, the “IC50 … n = 3” value in test [2] was found to be 0.035 nM. Moreover, in [15], the “EC50, HDLM-2 proliferation assay (3H-thymidine)” value was 4.5 nM. The “EC50, L-1236 proliferation assay (3H-thymidine)” value in test [15] is 0.39 nM. In addition, the “IC50, IL-13-induced CD23 expression on whole blood B cells (FACS)” value in test [15] stood at 6.2 nM.

B3: mAb 785 (antibody, V domains shown)
VH: not shown
VL: SYVLTQPPSVSVAPGQTARITCGGNNIGNKIVHWYQQKPGQAPVLVVYDDSDRPSGIPERFSGSNSGNTATLTISRVEAGDEADYYCQVWDSSSDHVVFGGGTKLTVLG
B3: in [1], the binding result is given as “no binding”. Besides, in [2], the “IC50 … Average” value turned out to be 0.176 nM; the “IC50 … n = 1” value worked out at 0.223 nM; the “IC50 … n = 2” value amounted to 0.144 nM; the “IC50 … n = 3” value was 0.16 nM. Further, in [4], the binding result was “binds”. Also, in test [5], the binding result was “no binding”. Besides, in test [6], the binding result was “binds”.

B4: mAb 731 (antibody, V domains shown)
VH: EVQLLESGGGLVQPGGSLRLSCAASGFTFSSYAMSWVRQAPGKGLEWVSAFSGSGGSTYYADSVKGRFTISRDNSKNTLYLQMNSLRAEDTAVYYCVQDGLGPYFYNYGMDVWGQGTTVTVSS
VL: SYELTQPPSVSVSPGQTASITCSGDKLGDKYACWFQQKPGQSPVLVIYHDSKRPSGIPERFSGSNSGDTATLTISGTQAMDEADYYCQAWDSSTYVFGTGTKVTVLG
notes: also called sc731
Turning to B4, the binding result in test [21] was “binds”; in [10] it was “binds”; in test [1] it was “no binding”; in [4] it was “no binding”. The “IC50, eotaxin production by HDFa cells, 300 pM IL-13” value in test [8] is 28 pM. Also, the “IC50, eotaxin production by HDFa cells, 600 pM IL-13” value in test [8] worked out at 56 pM. Moreover, the dissociation constant (Kd) in [11] was < 0.007 nM; in test [16], 1.6 nM; in test [18], 0.0089 nM; in test [20] it was 0.0089 nM; in [7], 0.009 nM. For the same molecule, the on-rate (kon) in test [14] was 4.7e+06 M⁻¹ s⁻¹; in [7], 3.9e+06 M⁻¹ s⁻¹. In addition, in test [2], the “IC50 … Average” value stood at 0.016 nM. Besides, in test [2], the “IC50 … n = 1” value worked out at 0.011 nM. The “IC50 … n = 2” value in test [2] was 0.019 nM. Besides, the “IC50 … n = 3” value in [2] is 0.017 nM. For the same molecule, the “EC50, HDLM-2 proliferation assay (3H-thymidine)” value in test [15] came to 0.18 nM. In addition, the “EC50, L-1236 proliferation assay (3H-thymidine)” value in test [15] came out at 0.0052 nM. Also, in [15], the “IC50, IL-13-induced CD23 expression on whole blood B cells (FACS)” value is 0.87 nM. Also, the koff in test [19] was 4.2e-05 s⁻¹; in [7], 3.5e-05 s⁻¹.
